Laboratory results published in patent US20240352088A1 (AICHI PREFECTURE, published 2024).

Biological target: T1, IL-6 (interleukin-6) (human, UniProt P05231 30-212)
T1 construct: also called recombinant IL-6; human IL-6
Assay: plasma IL-6 by ELISA 1, 2 and 4 h after i.v. human IL-6 (2 µg) in NSG mice given the CAR-T cells
Protocol: An NALM6 cell line stably transduced with EGFP-P2A-Luc2 (GL) (referred to as a “NALM6-GL cell line”) was administered at 2.5×10⁶ cells/mouse into the tail vein of the NSG mice (Charles River Laboratories Japan, JAX Mice Stock No: 005557). After 10 days, control cells transduced with only a CAR gene or GP130-IL6R-ca7R-transduced CAR-T cells were administered into the tail vein at 3×10⁶ cells/mouse. After another 7 days, 2 μg of human IL-6 was intravenously administered, and blood was collected at 1 hour, 2 hours, and 4 hours after the injection to measure the concentration of IL-6 in plasma by ELISA. Note that the control cells or GP130-IL6R-ca7R-transduced CAR-T cells used for the administration into the NSG mice were stimulated again with the NALM6-GL cell line on day 7 of culture and expanded, and cultured for 11 days.

- binding result: binds
B1: chimeric cytokine receptor GP130-IL6R-ca7R (receptor)
chain: ELLDPCGYISPESPVVQLHSNFTAVCVLKEKCMDYFHVNANYIVWKTNHFTIPKEQYTIINRTASSVTFTDIASLNIQLTCNILTFGQLEQNVYGITIISGLPPEKPKNLSCIVNEGKKMRCEWDGGRETHLETNFTLKSEWATHKFADCKAKRDTPTSCTVDYSTVYFVNIEVWVEAENALGKVTSDHINFDPVYKVKPNPPHNLSVINSEELSSILKLTWTNPSIKSVIILKYNIQYRTKDASTWSQIPPEDTASTRSSFTVQDLKPFTEYVFRIRCMKEDGKGYWSDWSEEASGITYEDRPGSAGSAAGSGEFVDVPPEEPQLSCFRKSPLSNVVCEWGPRSTPSLTTKAVLLVRKFQNSPAEDFQEPCQYSQESQKFSCQLAVPEGDSSFYIVSMCVASSVGSKFSKTQTFQGCGILQPDPPANITVTAVARNPRWLSVTWQDPHSWNSSFYRLRFELRYRAERSKTFTTWMVKDLQHHCVIHDAWSGLRHVVQLRAQEEFGQGEWSEWSPEAMGTPWTESRSPPAENEVSTPMQALTTNKDDDNILFRDSANATSLPVQDSSSVPLPAAANNSSGEMDPILLPPCLTISILSFFSVALLVILACVLWKKRIKPIVWPSLPDHKKTLEHLCKKPRKNLNVSFNPESFLDCQIHRVDDIQARDEVEGFLQDTFPQQLEESEKQRLGGDVQSPNCPSEDVVITPESFGRDSSLTCLAGNVSACDAPILSSSRSLDCRESGKNGPHVYQDLLLSLGTTNSTLPPPFSLQSGILTLNPVAQGQPILTSLGSNQEEAYVTMSSFYQNQ
notes: Expressed on the surface of human CAR-T cells; also called GP130-IL6R-ca7R(WT)
